{"source": "paper PMC5394239", "about": "(Nature Communications, 2017)", "target": "the molecule itself", "assay": "cryo-EM structure", "data": [{"protein": "SARS-CoV S ectodomain, uncleaved, trimerization motif and His tag removed by thrombin (domain or fragment) not shown", "values": [{"measurement": "stoichiometry N", "value": 3}]}]}
